Experimental data reported in article PMC11266487.

Molecular target: angiotensin converting enzyme 2 (ACE2) (human (endogenous in BCi.NS1.1)) (UniProt Q9BYF1)
UniProt Q9BYF1, sequence (Q9BYF1 18-805): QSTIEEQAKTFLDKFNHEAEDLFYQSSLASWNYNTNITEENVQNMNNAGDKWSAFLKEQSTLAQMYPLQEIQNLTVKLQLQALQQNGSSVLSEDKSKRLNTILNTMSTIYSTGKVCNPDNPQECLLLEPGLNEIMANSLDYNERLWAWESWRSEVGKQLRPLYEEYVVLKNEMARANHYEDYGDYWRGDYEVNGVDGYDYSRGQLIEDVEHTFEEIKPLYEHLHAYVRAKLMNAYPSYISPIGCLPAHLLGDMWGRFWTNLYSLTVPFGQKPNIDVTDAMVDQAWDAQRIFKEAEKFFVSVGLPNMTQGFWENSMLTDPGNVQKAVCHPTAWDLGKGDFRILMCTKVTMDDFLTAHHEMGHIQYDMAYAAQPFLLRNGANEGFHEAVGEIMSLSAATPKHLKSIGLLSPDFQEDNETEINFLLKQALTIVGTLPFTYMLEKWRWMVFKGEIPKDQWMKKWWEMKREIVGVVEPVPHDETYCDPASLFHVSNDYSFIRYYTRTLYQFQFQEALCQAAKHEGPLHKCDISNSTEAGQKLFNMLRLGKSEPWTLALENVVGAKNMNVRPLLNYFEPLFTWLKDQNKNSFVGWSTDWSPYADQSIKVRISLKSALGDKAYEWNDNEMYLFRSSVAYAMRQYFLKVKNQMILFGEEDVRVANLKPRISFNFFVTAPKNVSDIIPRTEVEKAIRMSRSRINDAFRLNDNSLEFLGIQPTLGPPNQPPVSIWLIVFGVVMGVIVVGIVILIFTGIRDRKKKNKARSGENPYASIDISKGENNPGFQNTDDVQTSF

Row | Substance | Ki for reduction of cAMP-activated CFTR chloride channel activity (Ussing chamber, differentiated BCi.NS1.1 epithelia)
1 | β-1.351 [S1S2] spike protein (natural protein) | 0.21 µg/mL
2 | Wuhan-Hu-1 [S1S2] spike protein (natural protein) | 0.446 µg/mL
